The target in this experiment is T1, recombinant HMG1 produced in E. coli as calmodulin binding protein (CBP) fusion (human).
T1 chain: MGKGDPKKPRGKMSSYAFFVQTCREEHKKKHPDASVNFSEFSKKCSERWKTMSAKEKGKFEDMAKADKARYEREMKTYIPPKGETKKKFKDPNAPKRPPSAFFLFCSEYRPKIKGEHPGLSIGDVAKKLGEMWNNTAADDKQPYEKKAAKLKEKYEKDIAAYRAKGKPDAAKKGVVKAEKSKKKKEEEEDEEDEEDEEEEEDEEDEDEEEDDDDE
Put plainly: cell-based or functional assay.

B1: anti-HMG1 antibody S12 (antibody, V domains shown)
VH: EVQLLESGGGLVQPGGSLRLSCAASGFTFSKYIMHWVRQAPGKGLEWVSGIVPSGGLTEYADSVKGRFTISRDNSKNTLYLQMNSLRAEDTATYYCAKEIFGQFDYWGQGTLVTVSS
VL: AQSALTQPPSVSAAPRQRVTISCSGSTSNIGNNAVTWYQYFPGKAPKLLIYSDNQRPSGVPDRFSGSKSGTSASLAITGLQAEDEADYYCQSYDRGLSVVFGGGTKLTVL
For the molecule B1, the “IC50, inhibition of rHMG1 stimulated IL-6 release from human PBMCs” value is 1670 pM.

B2: anti-HMG1 antibody G2 (antibody, V domains shown)
VH: EVQLLESGGGLVQPGGSLRLSCAASGFTFSWYKMQWVRQAPGKGLEWVSGISPSGGSTAYADSVKGRFTISRDNSKNTLYLQMNSLRAEDTAVYYCAKMGLFNTGNSYVDYWGQGTLVTVSS
VL: AQSELTQPPSVSEAPGQRVTISCSGSTSNIGNNAVIWYQQLPGKAPKLLIYYDDLLPSGVSDRFSGSKSGTSGSLAISGLQSEDEADYYCASWDDNLNGPLFGGGTKLTVL
On to B2, for which the “IC50, inhibition of rHMG1 stimulated IL-1β release from human PBMCs” value turned out to be 5.03 µg/mL; the “IC50, inhibition of rHMG1 stimulated IL-6 release from human PBMCs” value stood at 994 pM; the “IC50, inhibition of rHMG1 stimulated IL-12 release from human PBMCs” value is 1.26 µg/mL; the “IC50, inhibition of rHMG1 stimulated TNF-α release from human PBMCs” value was 1.35 µg/mL.

B3: anti-HMG1 antibody E11 (antibody, V domains shown)
VH: EVQLLESGGGLVQPGGSLRLSCAASGFTFSRYQMNWVRQAPGKGLEWVSSISPSGGHTHYADSVKGRFTISRDNSKNTLYLQMNSLRAEDTAVYYCAKDGRQGKISTVDHWGQGTLVTVSS
VL: DIQMTQSPGTLSLSPGERATLSCRASQSVRSNFLAWYQQKPGQAPRLLIYGASRRASGIPDRFSGSGFGADFTLSISRLEPEDFAVYYCQQYGSSPNTFGQGSRVEIK
As for B3, the “IC50, inhibition of HMG1 stimulated NO release from macrophages” value was determined as 101 µg/mL and the “IC50, inhibition of rHMG1 stimulated IL-6 release from human PBMCs” value was found to be 1220 pM.

B4: anti-HMG1 antibody G20 (antibody, V domains shown)
VH: EVQLLESGGGLVQPGGSLRLSCAASGFTFSWYDMFWVRQAPGKGLEWVSWISPSGGYTKYADSVKGRFTISRDNSKNTLYLQMNSLRAEDTAMYYCARSGLDYYDSSGYLDAFDIWGQGTMVTVSS
VL: DIQMTQSPSSVSASVGDRVTITCRASQDVSIWLAWYQQKPGKAPKLLIFGASRLQSGVPSRFSGSRSGADFTLTIDSVQPEDFASYYCQQADSFPLTFGGGTKVEIK
Turning to B4, the “IC50, inhibition of HMG1 stimulated NO release from macrophages” value was determined as 20.4 µg/mL; the “IC50, inhibition of rHMG1 stimulated IL-1β release from human PBMCs” value turned out to be 0.4 µg/mL; the “IC50, inhibition of rHMG1 stimulated IL-6 release from human PBMCs” value came out at 652 pM; the “IC50, inhibition of rHMG1 stimulated TNF-α release from human PBMCs” value is 0.598 µg/mL.

B5: anti-HMG1 antibody S17 (antibody, V domains shown)
VH: EVQLLESGGGLVQPGGSLRLSCAASGFTFSYYDMHWVRQAPGKGLEWVSRISPSGGYTWYADSVKGRFTISRDNSKNTLYLQMNSLRAEDTAVYYCTRGRYTSGWHEYFDPWGQGTLVTVSS
VL: DIQMTQSPSSLSASVGDRVTITCRASQSIGTYLNWYQQKPGTAPKVLIYAASSLQSGVPSRFSGSGSGTDFTLTISSLQPEDFSTYYCQQSYNTPRTFGQGTKLEIK
As for B5, the “IC50, inhibition of HMG1 stimulated NO release from macrophages” value was 41.7 µg/mL; the “IC50, inhibition of rHMG1 stimulated IL-1β release from human PBMCs” value turned out to be 0.0809 µg/mL; the “IC50, inhibition of rHMG1 stimulated IL-6 release from human PBMCs” value is 162 pM.

These data come from US20090169546A1 (published 2009).
